Measurements: IntAct's records for PubMed 18423203

B1: Peripheral plasma membrane protein CASK (Homo sapiens), O14936 (parent)
chain: MADDDVLFEDVYELCEVIGKGPFSVVRRCINRETGQQFAVKIVDVAKFTSSPGLSTEDLKREASICHMLKHPHIVELLETYSSDGMLYMVFEFMDGADLCFEIVKRADAGFVYSEAVASHYMRQILEALRYCHDNNIIHRDVKPHCVLLASKENSAPVKLGGFGVAIQLGESGLVAGGRVGTPHFMAPEVVKREPYGKPVDVWGCGVILFILLSGCLPFYGTKERLFEGIIKGKYKMNPRQWSHISESAKDLVRRMLMLDPAERITVYEALNHPWLKERDRYAYKIHLPETVEQLRKFNARRKLKGAVLAAVSSHKFNSFYGDPPEELPDFSEDPTSSGLLAAERAVSQVLDSLEEIHALTDCSEKDLDFLHSVFQDQHLHTLLDLYDKINTKSSPQIRNPPSDAVQRAKEVLEEISCYPENNDAKELKRILTQPHFMALLQTHDVVAHEVYSDEALRVTPPPTSPYLNGDSPESANGDMDMENVTRVRLVQFQKNTDEPMGITLKMNELNHCIVARIMHGGMIHRQGTLHVGDEIREINGISVANQTVEQLQKMLREMRGSITFKIVPSYRTQSSSCERDSPSTSRQSPANGHSSTNNSVSDLPSTTQPKGRQIYVRAQFEYDPAKDDLIPCKEAGIRFRVGDIIQIISKDDHNWWQGKLENSKNGTAGLIPSPELQEWRVACIAMEKTKQEQQASCTWFGKKKKQYKDKYLAKHNAVFDQLDLVTYEEVVKLPAFKRKTLVLLGAHGVGRRHIKNTLITKHPDRFAYPIPHTTRPPKKDEENGKNYYFVSHDQMMQDISNNEYLEYGSHEDAMYGTKLETIRKIHEQGLIAILDVEPQALKVLRTAEFAPFVVFIAAPTITPGLNEDESLQRLQKESDILQRTYAHYFDLTIINNEIDETIRHLEEAVELVCTAPQWVPVSWVY

Variants of: B1
Conditions: with nrx1b_rat Nrxn1, Q63373
Sequence of nrx1b_rat Nrxn1, Q63373 (Q63373 whole entry): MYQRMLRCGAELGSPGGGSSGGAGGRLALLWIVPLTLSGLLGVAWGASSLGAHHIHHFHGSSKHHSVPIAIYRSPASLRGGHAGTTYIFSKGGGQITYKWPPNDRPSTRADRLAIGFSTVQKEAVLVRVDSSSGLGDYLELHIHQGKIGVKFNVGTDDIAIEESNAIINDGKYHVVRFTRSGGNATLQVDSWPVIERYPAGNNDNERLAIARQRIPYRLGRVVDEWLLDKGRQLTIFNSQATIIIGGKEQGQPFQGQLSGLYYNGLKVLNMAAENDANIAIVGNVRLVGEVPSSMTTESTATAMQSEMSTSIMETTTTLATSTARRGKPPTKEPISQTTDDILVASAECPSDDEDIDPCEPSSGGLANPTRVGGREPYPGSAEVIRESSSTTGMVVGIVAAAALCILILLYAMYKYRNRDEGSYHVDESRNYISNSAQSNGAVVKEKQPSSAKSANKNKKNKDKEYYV

effect of a mutation on the interaction	Variant
decreasing interaction	S24D;V26L
